# Source: patent publication US8357833B2, “Corn plants and seed enhanced for asparagine and protein” (priority 2007, dated 2013)
# Like-named read-outs stand apart in the source and are kept apart here.
# T1: Zea mays asparagine synthetase Zm AsnS4 (SEQ ID NO: 51, encoded by SEQ ID NO: 50) (Zea mays, UniProt B5U8J9)
# T1 construct: 588 aa
# T1 sequence (B5U8J9 1-588): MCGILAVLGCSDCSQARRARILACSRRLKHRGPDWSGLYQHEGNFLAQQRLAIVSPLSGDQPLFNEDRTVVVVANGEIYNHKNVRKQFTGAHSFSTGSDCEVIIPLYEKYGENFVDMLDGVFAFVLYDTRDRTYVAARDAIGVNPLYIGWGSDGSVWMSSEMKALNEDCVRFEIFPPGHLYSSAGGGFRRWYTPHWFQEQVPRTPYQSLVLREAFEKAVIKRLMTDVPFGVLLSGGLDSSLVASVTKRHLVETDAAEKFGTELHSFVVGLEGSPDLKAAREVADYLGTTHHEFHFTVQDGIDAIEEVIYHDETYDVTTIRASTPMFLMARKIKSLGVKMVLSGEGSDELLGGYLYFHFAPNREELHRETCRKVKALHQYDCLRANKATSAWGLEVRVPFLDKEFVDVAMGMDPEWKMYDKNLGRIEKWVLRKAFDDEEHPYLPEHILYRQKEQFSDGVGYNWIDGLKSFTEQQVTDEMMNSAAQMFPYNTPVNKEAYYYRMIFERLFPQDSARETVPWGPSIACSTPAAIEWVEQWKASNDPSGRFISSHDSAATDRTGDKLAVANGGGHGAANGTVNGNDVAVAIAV
# T2: Zea mays asparagine synthetase Zm AsnS2 (SEQ ID NO: 4, encoded by SEQ ID NO: 3) (Zea mays, UniProt B5U8J7)
# T2 construct: 606 aa
# T2 sequence (B5U8J7 1-606): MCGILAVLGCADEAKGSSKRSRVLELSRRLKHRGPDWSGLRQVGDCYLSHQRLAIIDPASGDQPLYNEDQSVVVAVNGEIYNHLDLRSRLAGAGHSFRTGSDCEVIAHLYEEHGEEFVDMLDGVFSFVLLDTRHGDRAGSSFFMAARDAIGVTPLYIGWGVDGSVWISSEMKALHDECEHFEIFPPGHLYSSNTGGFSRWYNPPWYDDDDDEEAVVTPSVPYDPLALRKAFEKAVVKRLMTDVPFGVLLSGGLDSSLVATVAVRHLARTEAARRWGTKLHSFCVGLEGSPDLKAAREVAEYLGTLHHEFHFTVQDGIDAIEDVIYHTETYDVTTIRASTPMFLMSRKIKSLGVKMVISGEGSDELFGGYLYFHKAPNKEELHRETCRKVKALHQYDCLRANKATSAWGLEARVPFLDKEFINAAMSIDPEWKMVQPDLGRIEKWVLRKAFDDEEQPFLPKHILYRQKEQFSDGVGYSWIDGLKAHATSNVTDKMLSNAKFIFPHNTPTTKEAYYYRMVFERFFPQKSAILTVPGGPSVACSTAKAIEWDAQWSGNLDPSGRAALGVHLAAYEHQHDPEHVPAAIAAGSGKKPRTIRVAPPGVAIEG
# How the values were obtained:
# [1] = target: T1, Zea mays asparagine synthetase Zm AsnS4 (SEQ ID NO: 51, encoded by SEQ ID NO: 50); experiment: Kinetics of recombinant his-tagged, refolded maize asparagine synthetase AsnS4 (substrate titration, asparagine by HPLC); type: biochemical
# Protocol: The effect of expression of asparagine synthetase genes on asparagine synthetase activity was measured in transgenic events of pMON79706 and pMON92870. Frozen, ground leaf tissue was aliquoted (200-400 mg) into wells from a precooled 96 deep-well plate. Protein was extracted in Buffer A (100 mM Hepes-OH, pH 8.0, 0.1 mM EDTA, 10 mM MgCl2, 2 mM aspartate, 0.5 mM DTT, 67 mM mercaptoethanol, 20% (v/v) glycerol, 0.1 mM ATP, 1% (v/v) P9599 (Sigma Company), 25 mM KCl). A small amount of sand was added to each well. Buffer A was then added to the leaf tissue in the wells at a ratio of 4:1 (buffer:tissue). The plates were then agitated in a paint shaker for 2 min. to mix the sample and then centrifuged at 5000×g for 10 minutes. The supernatant (100-200 μL) was desalted in a 96-well macro spin plate (SNS S025L, The Nest Group Inc., Southboro, Mass.) equilibrated in buffer A. The supernatant was then either assayed immediately or frozen in liquid nitrogen and maintained at −80° C. until used. To assay asparagine synthetase activity, desalted protein extracts (10-50 μL) were added to wells containing 100 μL assay solution (100 mM Hepes, pH 8.0, 10 mM MgCl2, 2 mM aspartate, 5 mM DTT, 10 mM ATP, 1 mM amino(oxy)acetic acid (aspartate amino transferase inhibitor), 1 mM aspartic semialdehyde (asparaginase inhibitor). To start the reaction, glutamine (final concentration of 2 mM for standard assay) was added to the solution, which was then mixed. The assay mixture was then incubated for 1 to 2 hours. The reaction was then stopped by the addition of an equal volume of 20% (w/v) trichloroacetic acid. The mixture was then filtered to remove precipitate and asparagine was measured by HPLC. Sample size was increased from 0.5 μL to 2.5 μL for HPLC, excitation wavelength was reduced from 340 nm to 235 nm, and fluorimeter gain was increased from 10 to 13. […]
# [2] = target: T2, Zea mays asparagine synthetase Zm AsnS2 (SEQ ID NO: 4, encoded by SEQ ID NO: 3); experiment: Kinetics of recombinant his-tagged, refolded maize asparagine synthetase AsnS2 (substrate titration, asparagine by HPLC); type: biochemical; conditions: AsnS2 versus the other maize AsnS enzymes
# Protocol: The effect of expression of asparagine synthetase genes on asparagine synthetase activity was measured in transgenic events of pMON79706 and pMON92870. Frozen, ground leaf tissue was aliquoted (200-400 mg) into wells from a precooled 96 deep-well plate. Protein was extracted in Buffer A (100 mM Hepes-OH, pH 8.0, 0.1 mM EDTA, 10 mM MgCl2, 2 mM aspartate, 0.5 mM DTT, 67 mM mercaptoethanol, 20% (v/v) glycerol, 0.1 mM ATP, 1% (v/v) P9599 (Sigma Company), 25 mM KCl). A small amount of sand was added to each well. Buffer A was then added to the leaf tissue in the wells at a ratio of 4:1 (buffer:tissue). The plates were then agitated in a paint shaker for 2 min. to mix the sample and then centrifuged at 5000×g for 10 minutes. The supernatant (100-200 μL) was desalted in a 96-well macro spin plate (SNS S025L, The Nest Group Inc., Southboro, Mass.) equilibrated in buffer A. The supernatant was then either assayed immediately or frozen in liquid nitrogen and maintained at −80° C. until used. […] The mixture was then filtered to remove precipitate and asparagine was measured by HPLC. […]
# [3] = substrate: N[C@@H](CC(=O)O)C(=O)O; experiment: Kinetics of recombinant his-tagged, refolded maize asparagine synthetase AsnS3 (substrate titration, asparagine by HPLC); type: biochemical, Zea mays; conditions: other: Zm AsnS3, 100 mM Hepes, pH 8.0, 10 mM MgCl2
# Source text: (§1) This example describes the cloning of the nucleotide sequence for AsnS1 (SEQ ID NO: 1), AsnS2 (SEQ ID NO: 3), AsnS3 (SEQ ID NO: 5) and AsnS4 (SEQ ID NO: 50) into E. coli expression vectors, as well as the expression, purification and kinetics of the recombinant forms of the four AsnS isoforms.
# (§2) These vectors are expected to produce recombinant proteins with C-terminal histidine tags.
# (§3) The E. coli expression vectors described in the previous paragraph were used to transform Rosetta DE5™ E. coli cells (Novagen). Transformed cells were transferred from solid LB media plates and grown in liquid LB media containing standard concentrations of kanomycin (50 μM) and chloramphenicol (25 μM) at 37° C. An overnight culture was used to inoculate a 25 mL culture, which was grown at 37° C. until mid log phase (OD600=0.40.6). Cells were then transferred to 20° C. for 30 min after which IPTG was added to a final concentration of 0.5 mM. The cells were then grown at 20° C. for 12 hours and cell pellets were harvested by centrifugation.
# (§4) The protein was recovered from the insoluble fraction while bound to a nickel column. Buffers used for the purification of recombinant AsnS were: […]
# [4] = substrate: Nc1ncnc2c1ncn2[C@@H]1O[C@H](COP(=O)(O)OP(=O)(O)OP(=O)(O)O)[C@@H](O)[C@H]1O; experiment: as above; type: biochemical, Zea mays; conditions: other: Zm AsnS3, 100 mM Hepes, pH 8.0, 10 mM MgCl2
# Source text: as §1, §2, §3, §4
# [5] = substrate: NC(=O)CC[C@H](N)C(=O)O; experiment: as above; type: biochemical, Zea mays; conditions: other: Zm AsnS3, 100 mM Hepes, pH 8.0, 10 mM MgCl2
# Source text: as §1, §2, §3, §4
# [6] = substrate: N[C@@H](CC(=O)O)C(=O)O; experiment: Kinetics of recombinant his-tagged, refolded maize asparagine synthetase AsnS1 (substrate titration, asparagine by HPLC); type: biochemical, Zea mays; conditions: other: Zm AsnS1, 100 mM Hepes, pH 8.0, 10 mM MgCl2
# Source text: as §1, §2, §3, §4
# [7] = substrate: Nc1ncnc2c1ncn2[C@@H]1O[C@H](COP(=O)(O)OP(=O)(O)OP(=O)(O)O)[C@@H](O)[C@H]1O; experiment: as above; type: biochemical, Zea mays; conditions: other: Zm AsnS1, 100 mM Hepes, pH 8.0, 10 mM MgCl2
# Source text: as §1, §2, §3, §4
# [8] = substrate: NC(=O)CC[C@H](N)C(=O)O; experiment: as above; type: biochemical, Zea mays; conditions: other: Zm AsnS1, 100 mM Hepes, pH 8.0, 10 mM MgCl2
# Source text: as §1, §2, §3, §4
# [9] = substrate: N[C@@H](CC(=O)O)C(=O)O; experiment: Kinetics of recombinant his-tagged, refolded maize asparagine synthetase AsnS2 (substrate titration, asparagine by HPLC); type: biochemical, Zea mays; conditions: other: Zm AsnS2, 100 mM Hepes, pH 8.0, 10 mM MgCl2
# Source text: as §1, §2, §3, §4
# [10] = substrate: Nc1ncnc2c1ncn2[C@@H]1O[C@H](COP(=O)(O)OP(=O)(O)OP(=O)(O)O)[C@@H](O)[C@H]1O; experiment: as above; type: biochemical, Zea mays; conditions: other: Zm AsnS2, 100 mM Hepes, pH 8.0, 10 mM MgCl2
# Source text: as §1, §2, §3, §4
# [11] = substrate: NC(=O)CC[C@H](N)C(=O)O; experiment: as above; type: biochemical, Zea mays; conditions: other: Zm AsnS2, 100 mM Hepes, pH 8.0, 10 mM MgCl2
# Source text: as §1, §2, §3, §4
molecule,measurement,setting,value
Nc1ncnc2c1ncn2[C@@H]1O[C@H](COP(=O)(O)OP(=O)(O)OP(=O)(O)O)[C@@H](O)[C@H]1O [ATP],Km,"[1]; read-out: Km(ATP), 100 mM Hepes, pH 8.0, 10 mM MgCl2",128 µM
"NC(=O)CC[C@H](N)C(=O)O [Gln, glutamine]",Km,"[1]; 100 mM Hepes, pH 8.0, 10 mM MgCl2, read-out: Km(Gln)",233 µM
same,Km (Gln) for AsnS2 compared with the other enzymes,[2],several fold lower than the other enzymes
"Zea mays asparagine synthetase Zm AsnS3 (SEQ ID NO: 6, encoded by SEQ ID NO: 5) (Zea mays) (protein, 588 aa) MCGILAVLGCSDWSQAKRARILACSRRLKHRGPDWSGLYQHEGNFLAQQRLAVVSPLSGDQPLFNEDRTVVVVANGEIYNHKNVRKQFTGTHNFSTGSDCEVIMPLYEKYGENFVDMLDGVFAFVLYDTRDRTYVAARDAIGVNPLYIGWGSDGSVWIASEMKALNEDCVRFEIFPPGHLYSSAGGGFRRWYTPHWFQEQVPRTPYQPLVLREAFEKAVIKRLMTDVPFGVLLSGGLDSSLVASVTKRHLVETEAAEKFGTELHSFVVGLEGSPDLKAAREVADYLGTIHHEFHFTVQDGIDAIEEVIYHDETYDVTTIRASTPMFLMARKIKSLGVKMVLSGEGSDELLGGYLYFHFAPNKEEFHRETCRKVKALHQYDCLRANKATSAWGLEVRVPFLDKEFINVAMGMDPEWKMYDKNLGRIEKWVMRKAFDDDEHPYLPKHILYRQKEQFSDGVGYNWIDGLKSFTEQQVTDEMMNNAAQMFPYNTPVNKEAYYYRMIFERLFPQDSARETVPWGPSIACSTPAAIEWVEQWKASNDPSGRFISSHDSAATDHTGGKPAVANGGGHGAANGTVNGKDVAVAIAV",Km,[3],1200 µM
same,Km,[4],97 µM
same,Km,[5],423 µM
"Zea mays asparagine synthetase Zm AsnS1 (SEQ ID NO: 2, encoded by SEQ ID NO: 1) (Zea mays) (protein) MICDKCSLVRSFFVGRPRDITSLYKKAGSCRTMCGILAVLGVAEVSLAKRSRIIELSRRLRHRGPDWSGLHCHEDCYLAHQRLAIIDPTSGDQPLYNEDKTVVVTVNGEIYNHEELKAKLKTHEFQTGSDCEVIAHLYEEYGEEFVDMLDGMFSFVLLDTRDKSFIAARDAIGICPLYMGWGLDGSVWFSSEMKALSDDCERFITFPPGHLYSSKTGGLRRWYNPPWFSETVPSTPYNALFLREMFEKAVIKRLMTDVPFGVLLSGGLDSSLVASVASRHLNETKVDRQWGNKLHTFCIGLKGSPDLKAAREVADYLSTVHHEFHFTVQEGIDALEEVIYHIETYDVTTIRASTPMFLMSRKIKSLGVKMVISGEGSDEIFGGYLYFHKAPNKKEFHEETCRKIKALHLYDCLRANKATSAWGVEARVPFLDKSFISVAMDIDPEWKMIKRDLGRIEKWVIRNAFDDDERPYLPKHILYRQKEQFSDGVGYSWIDGLKDHASQHVSDSMMMNAGFVYPENTPTTKEGYYYRMIFEKFFPKPAARSTVPGGPSVACSTAKAVEWDASWSKNLDPSGRAALGVHDAAYEDTAGKTPASADPVSDKGLRPAIGESLGTPVASATAV",Km,[6],980 µM
same,Km,[7],110 µM
same,Km,[8],543 µM
"Zea mays asparagine synthetase Zm AsnS2 (SEQ ID NO: 4, encoded by SEQ ID NO: 3) (Zea mays) (protein, 606 aa) MCGILAVLGCADEAKGSSKRSRVLELSRRLKHRGPDWSGLRQVGDCYLSHQRLAIIDPASGDQPLYNEDQSVVVAVNGEIYNHLDLRSRLAGAGHSFRTGSDCEVIAHLYEEHGEEFVDMLDGVFSFVLLDTRHGDRAGSSFFMAARDAIGVTPLYIGWGVDGSVWISSEMKALHDECEHFEIFPPGHLYSSNTGGFSRWYNPPWYDDDDDEEAVVTPSVPYDPLALRKAFEKAVVKRLMTDVPFGVLLSGGLDSSLVATVAVRHLARTEAARRWGTKLHSFCVGLEGSPDLKAAREVAEYLGTLHHEFHFTVQDGIDAIEDVIYHTETYDVTTIRASTPMFLMSRKIKSLGVKMVISGEGSDELFGGYLYFHKAPNKEELHRETCRKVKALHQYDCLRANKATSAWGLEARVPFLDKEFINAAMSIDPEWKMVQPDLGRIEKWVLRKAFDDEEQPFLPKHILYRQKEQFSDGVGYSWIDGLKAHATSNVTDKMLSNAKFIFPHNTPTTKEAYYYRMVFERFFPQKSAILTVPGGPSVACSTAKAIEWDAQWSGNLDPSGRAALGVHLAAYEHQHDPEHVPAAIAAGSGKKPRTIRVAPPGVAIEG",Km,[9],910 µM
same,Km,[10],125 µM
same,Km,[11],110 µM
